Reference: article doi:10.1101/765990 (bioRxiv, 2019)

Target: T1, Sed5p Habc domain (amino acids 1-210) (budding yeast, UniProt Q01590 1-210)
T1 sequence: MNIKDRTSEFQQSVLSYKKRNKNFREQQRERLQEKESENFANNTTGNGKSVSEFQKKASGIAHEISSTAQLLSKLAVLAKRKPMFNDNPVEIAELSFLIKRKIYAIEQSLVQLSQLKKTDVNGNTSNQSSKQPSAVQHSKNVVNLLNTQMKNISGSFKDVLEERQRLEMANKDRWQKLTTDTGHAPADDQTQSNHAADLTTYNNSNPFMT
Experiment: native gel or EMSA

binding result: binds
B1: Sed5p SNARE-motif (amino acids 211-320), wild type (domain or fragment)
chain: SLLDESSEKNNNSSNQGELSFPQNDSQLMLMEEGQLSNNVYLQERNRAVETIESTIQEVGNLFQQLASMVQEQGEVIQRIDANVDDIDLNISGAQRELLKYFDRIKSNRW
